Laboratory results as given in patent US20120142098A1 (NOVIMMUNE S A, published 2012).

Molecular target: T1, human TLR4/MD2 complex expressed on the cell surface (human, UniProt O00206 24-839; Q9Y6Y9 19-160)
T1 construct: also called CHO TLR4/MD2 transfectants
Experiment: binding to TLR4/MD-2 transfected CHO cells

T1 sequence (O00206 24-839 limits assumed, chain 1 of 2): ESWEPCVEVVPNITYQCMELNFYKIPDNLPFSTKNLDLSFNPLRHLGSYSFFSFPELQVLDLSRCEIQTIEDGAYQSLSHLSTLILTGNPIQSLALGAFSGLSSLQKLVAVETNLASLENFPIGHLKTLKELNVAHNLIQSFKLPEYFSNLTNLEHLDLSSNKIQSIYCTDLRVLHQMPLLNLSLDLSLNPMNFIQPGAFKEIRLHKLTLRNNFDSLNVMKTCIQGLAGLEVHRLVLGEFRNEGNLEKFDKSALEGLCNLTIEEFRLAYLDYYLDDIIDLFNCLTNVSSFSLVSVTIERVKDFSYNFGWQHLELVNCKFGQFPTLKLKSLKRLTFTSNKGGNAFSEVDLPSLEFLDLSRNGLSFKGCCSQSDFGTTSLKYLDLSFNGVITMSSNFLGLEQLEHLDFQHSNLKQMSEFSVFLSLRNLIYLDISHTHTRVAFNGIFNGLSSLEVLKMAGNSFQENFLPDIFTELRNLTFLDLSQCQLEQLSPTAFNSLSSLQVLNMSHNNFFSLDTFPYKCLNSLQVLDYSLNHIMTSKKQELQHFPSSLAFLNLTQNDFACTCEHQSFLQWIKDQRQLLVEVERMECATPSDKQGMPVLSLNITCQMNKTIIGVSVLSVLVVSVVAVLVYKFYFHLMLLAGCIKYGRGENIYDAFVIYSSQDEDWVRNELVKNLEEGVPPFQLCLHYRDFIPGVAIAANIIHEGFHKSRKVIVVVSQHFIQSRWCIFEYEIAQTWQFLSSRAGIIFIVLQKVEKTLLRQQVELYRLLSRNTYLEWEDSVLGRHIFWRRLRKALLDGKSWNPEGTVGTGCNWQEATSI
T1 sequence (Q9Y6Y9 19-160 R56G limits assumed, chain 2 of 2): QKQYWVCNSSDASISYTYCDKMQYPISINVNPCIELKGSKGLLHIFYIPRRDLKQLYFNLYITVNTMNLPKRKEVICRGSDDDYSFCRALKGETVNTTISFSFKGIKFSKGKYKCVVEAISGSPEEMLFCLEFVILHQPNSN

Row | binding result | Binder
1 | binds | chimeric MAb with the 15C1 variable region on a human IgG4 backbone (antibody, V domains shown, also called hIgG4 15C1; human IgG4 version of 15C1) VH: DVQLQESGPDLIQPSQSLSLTCTVTGYSITGGYSWHWIRQFPGNKLEWMGYIHYSGYTDFNPSLKTRISITRDTSKNQFFLQLNSVTTEDTATYYCARKDPSDGFPYWGQGTLVTVSA VL: DIVMTQSPATLSVTPGDRVSLSCRASQSISDHLHWYQQKSHESPRLLIKYASHAISGIPSRFSGSGSGTDFTLSIKSVEPEDIGVYYCQNGHSFPLTFGAGTKLELK
2 | binds | mouse IgG1 15C1 (antibody, V domains shown, Murine IgG1/K antibody; The hybridoma-derived and the PEAK-cell recombinant forms are treated as one molecule; also called mu15C1; murine 15C1) VH: DVQLQESGPDLIQPSQSLSLTCTVTGYSITGGYSWHWIRQFPGNKLEWMGYIHYSGYTDFNPSLKTRISITRDTSKNQFFLQLNSVTTEDTATYYCARKDPSDGFPYWGQGTLVTVSA VL: DIVMTQSPATLSVTPGDRVSLSCRASQSISDHLHWYQQKSHESPRLLIKYASHAISGIPSRFSGSGSGTDFTLSIKSVEPEDIGVYYCQNGHSFPLTFGAGTKLELK

Molecular target: T1, human TLR4/MD2 complex expressed on the …
Experiment: FACS (MFI) on CHO cells expressing human TLR4-MD2; PEAK supernatants at 0.33, 0.11 and 0.04 ug/ml
Experimental: The binding of these mutants was analyzed by FACS on cells expressing recombinant human TLR4-MD2. PEAK cells were co-transfected with 1 ug of combinations of expression vectors encoding 15C1 humanized VH mutant 1 or 2 together with 15C1 humanized VL A26 or 15C1 humanized VH 4-28 together with 15C1 humanized VL mutant 1, 2, 3 or 4 shown in Example 4 using the Trans IT-LT1 transfection reagent (Mirus Bio Corporation, Madison Wis.). All transfections were carried out in duplicates. 72 h post-transfection, PEAK cells supernatants were collected and the concentration of recombinant human IgG1/Kappa measured by ELISA. The antibody concentrations of all the supernatants were then adjusted to 0.33 μg/ml. These supernatants and two serial dilutions of 0.11 and 0.04 ug/ml were then tested for binding to CHO cells expressing human TLR4-MD2 at their surface by FACS. 5×10⁵ cells were incubated with the diluted PEAK supernatant for 1 h at 4° C.

Row | binding result | Binder
3 | binds | 15C1 humanized VH mutant 1 together with 15C1 humanized VL A26 (antibody, human IgG1, V domains shown, also called version VH mutant 1) VH: QVQLQESGPGLVKPSDTLSLTCAVSGYSITGGYSWHWIRQPPGKGLEWMGYIHYSGYTDFNPSLKTRITISRDTSKNQFSLKLSSVTAVDTAVYYCARKDPSDAFPYWGQGTLVTVSS VL: EIVLTQSPDFQSVTPKEKVTITCRASQSISDHLHWYQQKPDQSPKLLIKYASHAISGVPSRFSGSGSGTDFTLTINSLEAEDAATYYCQNGHSFPLTFGGGTKVEIK

Molecular target: T1, human TLR4/MD2 complex expressed on the …
Experiment: FACS on CHO stable cell line expressing human TLR4-MD2 complex
Experimental: Studies were then designed to evaluate which residues of the mouse CH2 domain are necessary for Fc-mediated inhibitory activity. Starting with the chimeric IgG115C1 containing the full length mouse CH2 domain, the approach was to identify the critical region of the CH2 domain by introducing a maximum number of human residues without observing a loss of the Fc-mediated inhibitory activity. The identification of these critical residues was determined by subdividing the mouse CH2 into 4 parts (A: EU positions 231 to 261; B: EU positions 319 to 340; C: EU positions 296-318 and D: EU positions 262 to 295) and introducing for each of the 4 sub-regions the corresponding CH2 amino acid sequence of a human IgG1 (see FIG. 6A). The sub-division of the mouse CH2 into four subregions was purely based on amino acid sequence homology with the human CH2. The four heavy chain mutants were engineered by overlapping PCR and recombinant MAbs expressed in PEAK. The corresponding antibodies were purified from transfected-cell supernatants by protein G affinity column chromatography and binding to CHO stable cell line expressing human TLR4-MD2 complex on their surface of the following antibodies was determined: muCH2-chimeric IgG1 15C1; chimeric IgG1 15C1; A mu 231-261 CH2 chimeric IgG1 15C1; B mu 319-340 CH2 chimeric IgG1 15C1; C mu 296-318 CH2 chimeric IgG1 15C1; and D mu 262-295 CH2 chimeric IgG1 15C1. 4×10⁵ cells/well were incubated for 30 minutes at 4° C. in 50 μl of phosphate buffered saline (PBS) with 1% bovine serum albumin (PBS-1% BSA) and either serial dilution of the appropriate antibody or an irrelevant human IgG1 isotype control. Cells were washed once with PBS-1% BSA and incubated in the same buffer with FMAT-Blue®-conjugated goat anti-human Kappa light chain antibody (1:250 dilution, Sigma K3502) for 30 minutes at 4° C. Cells were washed twice with PBS-1% BSA and analyzed using a FACScalibur® flow cytometer […] in the FL-4 channel.

Row | binding result | Binder
4 | binds | D mu 262-295 CH2 chimeric IgG1 15C1 (antibody, V domains shown, copies: 2 + 2) VH: DVQLQESGPDLIQPSQSLSLTCTVTGYSITGGYSWHWIRQFPGNKLEWMGYIHYSGYTDFNPSLKTRISITRDTSKNQFFLQLNSVTTEDTATYYCARKDPSDGFPYWGQGTLVTVSA VL: DIVMTQSPATLSVTPGDRVSLSCRASQSISDHLHWYQQKSHESPRLLIKYASHAISGIPSRFSGSGSGTDFTLSIKSVEPEDIGVYYCQNGHSFPLTFGAGTKLELK
5 | binds | C mu 296-318 CH2 chimeric IgG1 15C1 (antibody, V domains shown, copies: 2 + 2) VH: DVQLQESGPDLIQPSQSLSLTCTVTGYSITGGYSWHWIRQFPGNKLEWMGYIHYSGYTDFNPSLKTRISITRDTSKNQFFLQLNSVTTEDTATYYCARKDPSDGFPYWGQGTLVTVSA VL: DIVMTQSPATLSVTPGDRVSLSCRASQSISDHLHWYQQKSHESPRLLIKYASHAISGIPSRFSGSGSGTDFTLSIKSVEPEDIGVYYCQNGHSFPLTFGAGTKLELK
6 | binds | chimeric IgG1 15C1 (antibody, V domains shown, also called chimeric 15C1; 15C1 on a human IgG1 backbone) VH: DVQLQESGPDLIQPSQSLSLTCTVTGYSITGGYSWHWIRQFPGNKLEWMGYIHYSGYTDFNPSLKTRISITRDTSKNQFFLQLNSVTTEDTATYYCARKDPSDGFPYWGQGTLVTVSA VL: DIVMTQSPATLSVTPGDRVSLSCRASQSISDHLHWYQQKSHESPRLLIKYASHAISGIPSRFSGSGSGTDFTLSIKSVEPEDIGVYYCQNGHSFPLTFGAGTKLELK
7 | binds | B mu 319-340 CH2 chimeric IgG1 15C1 (antibody, V domains shown, It is built that way here; copies: 2 + 2) VH: DVQLQESGPDLIQPSQSLSLTCTVTGYSITGGYSWHWIRQFPGNKLEWMGYIHYSGYTDFNPSLKTRISITRDTSKNQFFLQLNSVTTEDTATYYCARKDPSDGFPYWGQGTLVTVSA VL: DIVMTQSPATLSVTPGDRVSLSCRASQSISDHLHWYQQKSHESPRLLIKYASHAISGIPSRFSGSGSGTDFTLSIKSVEPEDIGVYYCQNGHSFPLTFGAGTKLELK
8 | binds | A mu 231-261 CH2 chimeric IgG1 15C1 (antibody, V domains shown, It is built that way here; copies: 2 + 2) VH: DVQLQESGPDLIQPSQSLSLTCTVTGYSITGGYSWHWIRQFPGNKLEWMGYIHYSGYTDFNPSLKTRISITRDTSKNQFFLQLNSVTTEDTATYYCARKDPSDGFPYWGQGTLVTVSA VL: DIVMTQSPATLSVTPGDRVSLSCRASQSISDHLHWYQQKSHESPRLLIKYASHAISGIPSRFSGSGSGTDFTLSIKSVEPEDIGVYYCQNGHSFPLTFGAGTKLELK

Molecular target: T1, human TLR4/MD2 complex expressed on the …
Experiment: FACS on CHO stable cell line expressing human TLR4/MD2

Row | Binder | binding result
9 | chimeric IgG1 15C1 mutant # H (NKAF at EU positions 325 to 328) (antibody, V domains shown, Positions are in EU numbering; not shown: human IgG1 heavy chain constant region; human Kappa light chain constant region) VH: DVQLQESGPDLIQPSQSLSLTCTVTGYSITGGYSWHWIRQFPGNKLEWMGYIHYSGYTDFNPSLKTRISITRDTSKNQFFLQLNSVTTEDTATYYCARKDPSDGFPYWGQGTLVTVSA VL: DIVMTQSPATLSVTPGDRVSLSCRASQSISDHLHWYQQKSHESPRLLIKYASHAISGIPSRFSGSGSGTDFTLSIKSVEPEDIGVYYCQNGHSFPLTFGAGTKLELK | binds
10 | chimeric IgG1 15C1 mutant # F (SKAF at EU positions 325 to 328) (antibody, V domains shown, Positions are in EU numbering; not shown: human IgG1 heavy chain constant region; human Kappa light chain constant region) VH: DVQLQESGPDLIQPSQSLSLTCTVTGYSITGGYSWHWIRQFPGNKLEWMGYIHYSGYTDFNPSLKTRISITRDTSKNQFFLQLNSVTTEDTATYYCARKDPSDGFPYWGQGTLVTVSA VL: DIVMTQSPATLSVTPGDRVSLSCRASQSISDHLHWYQQKSHESPRLLIKYASHAISGIPSRFSGSGSGTDFTLSIKSVEPEDIGVYYCQNGHSFPLTFGAGTKLELK | binds

The next lines start with the values.

Row | binding result | Binder
11 | binds | chimeric IgG1 15C1 mutant # C (SAAF at EU positions 325 to 328) (antibody, V domains shown, Positions are in EU numbering; not shown: human IgG1 heavy chain constant region; human Kappa light chain constant region) VH: DVQLQESGPDLIQPSQSLSLTCTVTGYSITGGYSWHWIRQFPGNKLEWMGYIHYSGYTDFNPSLKTRISITRDTSKNQFFLQLNSVTTEDTATYYCARKDPSDGFPYWGQGTLVTVSA VL: DIVMTQSPATLSVTPGDRVSLSCRASQSISDHLHWYQQKSHESPRLLIKYASHAISGIPSRFSGSGSGTDFTLSIKSVEPEDIGVYYCQNGHSFPLTFGAGTKLELK
12 | binds | chimeric IgG1 15C1 mutant # G (NAAF at EU positions 325 to 328) (antibody, V domains shown, Positions are in EU numbering; not shown: human IgG1 heavy chain constant region; human Kappa light chain constant region) VH: DVQLQESGPDLIQPSQSLSLTCTVTGYSITGGYSWHWIRQFPGNKLEWMGYIHYSGYTDFNPSLKTRISITRDTSKNQFFLQLNSVTTEDTATYYCARKDPSDGFPYWGQGTLVTVSA VL: DIVMTQSPATLSVTPGDRVSLSCRASQSISDHLHWYQQKSHESPRLLIKYASHAISGIPSRFSGSGSGTDFTLSIKSVEPEDIGVYYCQNGHSFPLTFGAGTKLELK
13 | binds | chimeric IgG1 15C1 mutant # D (SAAL at EU positions 325 to 328) (antibody, V domains shown, Positions are in EU numbering; not shown: human IgG1 heavy chain constant region; human Kappa light chain constant region) VH: DVQLQESGPDLIQPSQSLSLTCTVTGYSITGGYSWHWIRQFPGNKLEWMGYIHYSGYTDFNPSLKTRISITRDTSKNQFFLQLNSVTTEDTATYYCARKDPSDGFPYWGQGTLVTVSA VL: DIVMTQSPATLSVTPGDRVSLSCRASQSISDHLHWYQQKSHESPRLLIKYASHAISGIPSRFSGSGSGTDFTLSIKSVEPEDIGVYYCQNGHSFPLTFGAGTKLELK
14 | binds | chimeric IgG1 15C1 mutant # E (NAAL at EU positions 325 to 328) (antibody, V domains shown, Positions are in EU numbering; not shown: human IgG1 heavy chain constant region; human Kappa light chain constant region) VH: DVQLQESGPDLIQPSQSLSLTCTVTGYSITGGYSWHWIRQFPGNKLEWMGYIHYSGYTDFNPSLKTRISITRDTSKNQFFLQLNSVTTEDTATYYCARKDPSDGFPYWGQGTLVTVSA VL: DIVMTQSPATLSVTPGDRVSLSCRASQSISDHLHWYQQKSHESPRLLIKYASHAISGIPSRFSGSGSGTDFTLSIKSVEPEDIGVYYCQNGHSFPLTFGAGTKLELK

Molecular target: T1, human TLR4/MD2 complex expressed on the …
Experiment: FACS on CHO TLR4/MD2 transfectants

Row | binding result | Binder
15 | binds | muCH2-chimeric IgG1 15C1 (antibody, V domains shown, domain: CH1 and hinge; The CH2 domain of human IgG1 is replaced with that of mouse IgG1; Limits are in EU numbering; also called chimeric IgG1 15C1 containing mouse CH2; muCH2 chim 15C1; not shown: mouse IgG1 heavy chain CH2 domain, EU positions 231 to 340; human IgG1 heavy chain CH3 domain (after EU position 340); human Kappa light chain constant region) VH: DVQLQESGPDLIQPSQSLSLTCTVTGYSITGGYSWHWIRQFPGNKLEWMGYIHYSGYTDFNPSLKTRISITRDTSKNQFFLQLNSVTTEDTATYYCARKDPSDGFPYWGQGTLVTVSA VL: DIVMTQSPATLSVTPGDRVSLSCRASQSISDHLHWYQQKSHESPRLLIKYASHAISGIPSRFSGSGSGTDFTLSIKSVEPEDIGVYYCQNGHSFPLTFGAGTKLELK
16 | binds | huCH2-mouse IgG1 15C1 (antibody, V domains shown, domain: CH1 and hinge; The CH2 domain of mouse IgG1 is replaced with that of human IgG1; Limits are in EU numbering; also called mouse IgG1 15C1 containing human CH2; not shown: human IgG1 heavy chain CH2 domain, EU positions 231 to 340; mouse IgG1 heavy chain CH3 domain (after EU position 340); mouse kappa light chain constant region) VH: DVQLQESGPDLIQPSQSLSLTCTVTGYSITGGYSWHWIRQFPGNKLEWMGYIHYSGYTDFNPSLKTRISITRDTSKNQFFLQLNSVTTEDTATYYCARKDPSDGFPYWGQGTLVTVSA VL: DIVMTQSPATLSVTPGDRVSLSCRASQSISDHLHWYQQKSHESPRLLIKYASHAISGIPSRFSGSGSGTDFTLSIKSVEPEDIGVYYCQNGHSFPLTFGAGTKLELK
